± gives the standard deviation of the averaged measurements.
Experiment: total protein half-life in vivo (active degradation + dilution); higher = more stable protein
[1] = E. coli NCM3722 delta-clpP delta-lon delta-hslV, growth: N-lim chemostat, doubling time 6 h
[2] = E. coli NCM3722 delta-clpP, growth: N-lim chemostat, doubling time 6 h
[3] = E. coli NCM3722 delta-lon, growth: N-lim chemostat, doubling time 6 h
[4] = E. coli NCM3722 delta-smpB, growth: N-lim chemostat, doubling time 6 h
[5] = wild type E. coli NCM3722, growth: C-lim chemostat, doubling time 3 h
[6] = wild type E. coli NCM3722, growth: C-lim chemostat, doubling time 6 h
[7] = wild type E. coli NCM3722, growth: C-lim chemostat, doubling time 12 h
[8] = wild type E. coli NCM3722, growth: N-lim chemostat, doubling time 6 h
[9] = wild type E. coli NCM3722, growth: N-lim chemostat, doubling time 12 h
[10] = wild type E. coli NCM3722, growth: P-lim chemostat, doubling time 6 h
[11] = wild type E. coli NCM3722, growth: P-lim chemostat, doubling time 12 h
[12] = E. coli NCM3722 delta-hslV, growth: N-lim chemostat, doubling time 6 h

Sequence | total protein half-life in vivo [1] [h] | total protein half-life in vivo [2] [h] | total protein half-life in vivo [3] [h] | total protein half-life in vivo [4] [h] | total protein half-life in vivo [5] [h] | total protein half-life in vivo [6] [h] | total protein half-life in vivo [7] [h] | total protein half-life in vivo [8] [h] | total protein half-life in vivo [9] [h] | total protein half-life in vivo [10] [h] | total protein half-life in vivo [11] [h] | total protein half-life in vivo [12] [h]
MKTLIVSTVLAFITFSAQAAAFQVTSNEIKTGEQLTTSHVFSGFGCEGGNTSPSLTWSGVPEGTKSFAVTVYDPDAPTGSGWWHWTVVNIPATVTYLPVDAGRRDGTKLPTGAVQGRNDFGYAGFGGACPPKGDKPHHYQFKVWALKTEKIPVDSNSSGALVGYMLNANKIATAEITPVYEIK | 4.45 ± 0.4 | 4.74 ± 0.75 | 5.18 ± 0.93 | 5.046 ± 0.013 | 2.24 ± 0.28 | 3.37 | 7.12 ± 3.5 | 6.15 ± 0.075 | 10.9 ± 0.48 | 6.28 ± 1.6 | 10.3 ± 1.9 | 
MKTLLIIDANLGQARAYMAKTLLGAAARKAKLEIIDNPNDAEMAIVLGDSIPNDSALNGKNVWLGDISRAVAHPELFLSEAKGHAKPYTAPVAATAPVAASGPKRVVAVTACPTGVAHTFMAAEAIETEAKKRGWWVKVETRGSVGAGNAITPEEVAAADLVIVAADIEVDLAKFAGKPMYRTSTGLALKKTAQELDKAVAEATPYEPAGKAQTATTESKKESAGAYRHLLTGVSYMLPMVVAGGLCIALSFAFGIEAFKEPGTLAAALMQIGGGSAFALMVPVLAGYIAFSIADRPGLTPGLIGGMLAVSTGSGFIGGIIAGFLAGYIAKLISTQLKLPQSMEALKPILIIPLISSLVVGLAMIYLIGKPVAGILEGLTHWLQTMGTANAVLLGAILGGMMCTDMGGPVNKAAYAFGVGLLSTQTYGPMAAIMAAGMVPPLAMGLATMVARRKFDKAQQEGGKAALVLGLCFISEGAIPFAARDPMRVLPCCIVGGALTGAISMAIGAKLMAPHGGLFVLLIPGAITPVLGYLVAIIAGTLVAGLAYAFLKRPEVDAVAKAA | 6.73 ± 0.62 |  | 5.76 ± 0.27 | 5.89 ± 0.43 | 3.54 ± 0.33 | 6.11 ± 0.28 | 13.4 ± 0.7 | 5.89 ± 0.44 | 11.6 ± 0.25 | 6.29 ± 0.29 | 11.9 ± 0.6 | 5.956 ± 0.014
MKTLNRRDFPGAQYPERIIQFGEGNFLRAFVDWQIDLLNEHTDLNSGVVVVRPIETSFPPSLSTQDGLYTTIIRGLNEKGEAVSDARLIRSVNREISVYSEYDEFLKLAHNPEMRFVFSNTTEAGISYHAGDKFDDAPAVSYPAKLTRLLFERFSHFNGALDKGWIIIPCELIDYNGDALRELVLRYAQEWALPEAFIQWLDQANSFCSTLVDRIVTGYPRDEVAKLEEELGYHDGFLDTAEHFYLFVIQGPKSLATELRLDKYPLNVLIVDDIKPYKERKVAILNGAHTALVPVAFQAGLDTVGEAMNDAEICAFVEKAIYEEIIPVLDLPRDELESFASAVTGRFRNPYIKHQLLSIALNGMTKFRTRILPQLLAGQKANGTLPARLTFALAALIAFYRGERNGETYPVQDDAHWLERYQQLWSQHRDRVIGTQELVAIVLAEKDHWEQDLTQVPGLVEQVANDLDAILEKGMREAVRPLC [P0A6L7] |  |  |  |  | 3.15 ± 0.18 | 4.58 ± 0.071 | 8.15 ± 1.3 |  |  | 5.26 ± 0.51 |  | 
MKTLSPAVITLLWRQDAAEFYFSRLSHLPWAMLLHSGYADHPYSRFDIVVAEPICTLTTFGKETVVSESEKRTTTTDDPLQVLQQVLDRADIRPTHNEDLPFQGGALGLFGYDLGRRFESLPEIAEQDIVLPDMAVGIYDWALIVDHQRHTVSLLSHNDVNARRAWLESQQFSPQEDFTLTSDWQSNMTREQYGEKFRQVQEYLHSGDCYQVNLAQRFHATYSGDEWQAFLQLNQANRAPFSAFLRLEQGAILSLSPERFILCDNSEIQTRPIKGTLPRLPDPQEDSKQAVKLANSAKDRAENLMIVDLMRNDIGRVAVAGSVKVPELFVVEPFPAVHHLVSTITAQLPEQLHASDLLRAAFPGGSITGAPKVRAMEIIDELEPQRRNAWCGSIGYLSFCGNMDTSITIRTLTAINGQIFCSAGGGIVADSQEEAEYQETFDKVNRILKQLEK | 5 ± 0.22 | 4.56 ± 0.35 | 4.5 ± 0.1 | 4.47 ± 0.21 | 3.57 ± 0.57 | 5.38 ± 0.12 | 11 ± 0.69 | 4.31 ± 0.16 | 7.82 ± 0.28 | 6.33 ± 0.27 | 12.2 ± 1.5 | 4.358 ± 0.037
MKTMLAAYLPGNSTVDLREVAVPTPGINQVLIKMKSSGICGSDVHYIYHQHRATAAAPDKPLYQGFINGHEPCGQIVAMGQGCRHFKEGDRVLVYHISGCGFCPNCRRGFPISCTGEGKAAYGWQRDGGHAEYLLAEEKDLILLPDALSYEDGAFISCGVGTAYEGILRGEVSGSDNVLVVGLGPVGMMAMMLAKGRGAKRIIGVDMLPERLAMAKQLGVMDHGYLATTEGLPQIIAELTHGGADVALDCSGNAAGRLLALQSTADWGRVVYIGETGKVEFEVSADLMHHQRRIIGSWVTSLFHMEKCAHDLTDWKLWPRNAITHRFSLEQAGDAYALMASGKCGKVVINFPD | 4.41 ± 0.15 | 2.87 | 2.619 ± 0.012 | 1.84 ± 1.1 |  | 2.74 | 5.33 ± 3.6 | 2.17 ± 0.04 | 3.6 ± 0.11 | 4.27 ± 0.51 | 8.54 ± 2.2 | 2.466 ± 0.011
MKTPLVTREGYEKLKQELNYLWREERPEVTKKVTWAASLGDRSENADYQYNKKRLREIDRRVRYLTKCLENLKIVDYSPQQEGKVFFGAWVEIENDDGVTHRFRIVGYDEIFGRKDYISIDSPMARALLKKEVGDLAVVNTPAGEASWYVNAIEYVKP | 4.94 ± 0.26 | 3.85 ± 0.086 | 4.34 ± 0.27 | 3.07 ± 0.3 | 2.83 ± 0.18 | 4.63 ± 0.26 | 7.33 ± 1.7 | 3.48 ± 0.33 | 5.226 ± 0.025 | 4.65 ± 0.57 | 8.01 ± 0.72 | 3.36 ± 0.21
